Laboratory results reported in the nanobody polyreactivity screen of Harvey et al. (2022).

Test: yeast display, Sf9 membrane polyspecificity reagent, FACS + sequencing; frameworks hold sequencing errors
In short: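 A nanobody's polyreactivity label depends on the gate it was sorted from. Yeast display cells were stained with 10% biotinylated, detergent-solubilized Sf9 membrane reagent for 1 hour at 4 °C, enriched on streptavidin microbeads and sorted by FACS. The low and high (top ~1%) gates were set on anti-HA fluorescence for expression and streptavidin fluorescence for reagent binding.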

Row | Sequence | polyreactivity (PSR sort gate)
1 | QVQLVESGGGLVQAGGSLRLSCAASGFIFGGYPMGWYRQAPGKERELVAAITIRGGSTSYADSVKGRFTISRDIAMNTVYLQMNSLKPEDSAVYYCNRQSRNAGGYYWGQGTQVTVSS | low polyreactivity
2 | QVQLVESGGGLVQAGGSLRLSCAASGFIFGHYAMGWYRQAPGKERELVAGIISSGGSTHYADSVKGRFTISRDNAKNTVYLQMNSLKPEDTAVYFCAADVYRYYAGSRYYYWGQGTQVTVSS | low polyreactivity
3 | QVQLVESGGGLVQAGGSLRLSCAASGFIFGINAMGWYRQAPGKERELVAAISKRTGSTYYADSVKGRFTISRDTAKNTVYLQMNSLKPEDTAVYYCNVVRYNGLDKYDYWGQGTQVTVSS | high polyreactivity
4 | QVQLVESGGGLVQAGGSLRLSCAASGFIFGIYAMGWYRQAPGKEREFVAAITGSAGSTYYADSVKGRFTISRDNAKNTVYLQMNSLKPEDTAVYYCAAVLRTHRYGGYNYWGQGSQVTVSS | low polyreactivity
5 | QVQLVESGGGLVQAGGSLRLSCAASGFIFGLYAMGWYRQAPGKERELVAAISWSGGSTYYADSVKGRFTISRDNAKNTVYLQMNSLKPEDTAVYYCAKRGGYGYEYYYWGQGTQVTVSS | high polyreactivity
6 | QVQLVESGGGLVQAGGSLRLSCAASGFIFGLYAMGWYRQAPGKERELVAAITWRGSTYYADSVKGRFTISRDNAKNTVYLQMNSLKPEDTAVYYCNDVRSAYILSNDYWGQGTQVTVSS | high polyreactivity
7 | QVQLVESGGGLVQAGGSLRLSCAASGFIFGNYALGWYRQAPWKERELVAGISGTGGSTYYADSVKGRFTISRDNAKNTVYLQMNSLKPEDTAVYYCAARIFKRQSFDYWGQGTQVTVSS | high polyreactivity
8 | QVQLVESGGGLVQAGGSLRLSCAASGFIFGPYTMGWYRQAPGKERELVAAINNSGSTYYADSVKGRFTISRDNAKNTVYLQMNSLKPEDTAVYYCAAEPIIFVRYDYWGQGTQVTVSS | low polyreactivity
9 | QVQLVESGGGLVQAGGSLRLSCAASGFIFGRNAMGWYRQAPGKERELVAGISSSGVRTFYADSVKGRFTISRDNAKNTVYLQMNSLKPEDTAVYYCATRGRVYPTKYSLDEDYWGQGTQVTVSS | high polyreactivity
10 | QVQLVESGGGLVQAGGSLRLSCAASGFIFGRYAMGWYRQAPGKEREFVAAITWRGGNTYYADSVKGRFTISRDNAKNTVYLQMNSLKPEDTAVYYCAKKTAGHPWGPIYDYWGQGTQVTVSS | high polyreactivity
11 | QVQLVESGGGLVQAGGSLRLSCAASGFIFGSYAMGWSRQAPGKERELVDAITRGGGNTYYADSVKGRFTISRDNAKNTVYLQMNSLKPEDTAVYYCAAVWGKRGYYYWGQGTQVTVSS | high polyreactivity
12 | QVQLVESGGGLVQAGGSLRLSCAASGFIFGSYAMGWYRQAPGKERELVAAITSGTTTYYADSVKGRFTISRDNAKNTVYLQMNSLKPEDTAVYYCAATLIYHYWQLFIISTMGYWGQGTQVTVSS | low polyreactivity
13 | QVQLVESGGGLVQAGGSLRLSCAASGFIFGTYAMGWYRHAPGKERELVAAISVGGGSTYYADSVKGRFTISRDNAKNTVYLQMNSLKPEDTAVYYCAAVQLFQKHQITYVANEYWGQGTQVTVSS | low polyreactivity
14 | QVQLVESGGGLVQAGGSLRLSCAASGFIFGTYAMGWYRQAPGKERELVAAISVGGGSTYYADSVKGRFTISRDKAKNTVYLQMNSLKPEDTADYYCAAVQLYQKHQITYVAHEYWGQGTQVTVSS | low polyreactivity
15 | QVQLVESGGGLVQAGGSLRLSCAASGFIFGTYAMGWYRQAPGKERELVAAITGSGGDTYYADSVKGRFTISRDNAKNTVYLQMNSLKPEDTAVYYCAAVRPPTPSRRREDYWGQGTQVTVSS | low polyreactivity
16 | QVQLVESGGGLVQAGGSLRLSCAASGFIFGTYVMGLYRTAPGKERELLAAISESGGRTYYADSVKGRFTISRDNAKNTVYIQMNSLIPEDTAVYYCAKVRHIRFHYYYGYQSYYYWGQGTQVTVSS | high polyreactivity
17 | QVQLVESGGGLVQAGGSLRLSCAASGFIFGVNAMGWYRQAPGKERELVAAIRWRGGSTYYADSVKGRFTISRDNAKNTVYLQMNSLKPEDTAVYYCAAARFVGGSGYVRILYYWGQGTQVTVSS | high polyreactivity
18 | QVQLVESGGGLVQAGGSLRLSCAASGFIFGVYAMGWYRQAPGKERELVAAISGSGGTTYYADSVKGRFTISRDNAKNTVYLQMISLKPEDTAVYYCNAAYRVRYIVNYDYWGQGTQVTVSS | low polyreactivity
19 | QVQLVESGGGLVQAGGSLRLSCAASGFIFGVYAMGWYRQAPGKERELVASISVSGDDTYYADSVKGRFTISRDNAKNTVYLQMNSLKPEDTAVYYCAADYPGGIYYDDYLYDMDYWGQGTQVTVSS | low polyreactivity
20 | QVQLVESGGGLVQAGGSLRLSCAASGFIFGVYDMGRYRQAPVKERDLVAAISIDDITNYADSVKGRFTISRDNAKNTVYLHLNSLKPEVTAVYYCAADGRTWWSNLEGEYWGQGTQVTVSS | low polyreactivity
21 | QVQLVESGGGLVQAGGSLRLSCAASGFIFGWYAMGWYRQAPGKERELVAAINWSGTSTYYADSVKGRFTISRDNAKNTVYLQMNILKPEDTAVYYCAAYFQNLPTTGYDYWGQGTQVTVSS | low polyreactivity
22 | QVQLVESGGGLVQAGGSLRLSCAASGFIFGWYTMGWYRQAPGKERELVASISRSGGSTYYAESVKARFTISRDNEKNSVYLQMNSQKPEDNPVYYCAKRSLVDAHGYWGQGTQVTVSS | high polyreactivity

Row | Sequence | polyreactivity (PSR sort gate)
23 | QVQLVESGGGLVQAGGSLRLSCAASGFIFGYNAMGWYRQAPGKERELVAAMDWSGTSTYYADSVKGRFTISRDNAKNTVYLQMNSLKPEDTAVYYCAKVSRRGIVGYWGQGTQVTVSS | high polyreactivity
24 | QVQLVESGGGLVQAGGSLRLSCAASGFIFGYYAMAWYRQAPGKERELVAAITSGTGTNYADSVKGRFTISRDNAKNTVYLQMNSLKPEDTAVYYCAAYYTWLSEFGYWGQGTQVTVSS | low polyreactivity
25 | QVQLVESGGGLVQAGGSLRLSCAASGFIFGYYAMGGYRQAPGKERELVATIRQTGGSTRYADSVKGRFTISRDNAKNTVYLQMNSLIPEDTAVYYCAAYKWPSWRTWPYDSWGQGPQVTVSS | high polyreactivity
26 | QVQLVESGGGLVQAGGSLRLSCAASGFIFGYYAMGWYRQAPAKERELVAAINWSGGSTYYADSVKGRFTISRDNAKNTVYLQMNSLKPEDTAVYYCAARYPYRRGGQDSYYYWGQGTQVTVSS | high polyreactivity
27 | QVQLVESGGGLVQAGGSLRLSCAASGFIFGYYAMGWYRQAPGKERELVAAINGSGGSTYYADSVKGRFTISRDNAKNTVYLQMNSLKPEDTAVYYCNADVVPQYYSWGQGTQVTVSS | low polyreactivity
28 | QVQLVESGGGLVQAGGSLRLSCAASGFIFGYYAMGWYRQAPGKERELVAAISKSGTDTYYADSVKGRFTISRDNAKNTVYLQMNSLKPEDTAVYYCNALLRGYSYGYDYWGQGTQVTVSS | high polyreactivity
29 | QVQLVESGGGLVQAGGSLRLSCAASGFIFGYYAMGWYRQAPGKERELVAAITSGTGTNYADSVKGRFTISRDNAKNTVYLQMNSLKPEDTAVYYCAAYYTWLSEFGYWGQGTQVTVSS | low polyreactivity
30 | QVQLVESGGGLVQAGGSLRLSCAASGFIFGYYAMGWYRQAPGKERELVAAITSGTSTNYADSVKGRFTISRDNAKYTVYLQMNSLKPDDTAVYYCAADRWRRRFYYWGQGTQVTVSS | high polyreactivity
31 | QVQLVESGGGLVQAGGSLRLSCAASGFIFHGYALGWYRQAPGKERELVAAITRRGGRTDYADSVKGRFTISRDNAKNTVYLQMNSLKPEDTAVYYCAKRYTATEWHGERDYWGQGTQVTVSS | high polyreactivity
32 | QVQLVESGGGLVQAGGSLRLSCAASGFIFHPNTMGWYRPAPGKERELVAGISYSGGITYTDSVKGRFTISRDNAKNTVYLQMNSLQPEDTAVYYFNARTKVAYYRHYYWGQGTQVTVSS | low polyreactivity
33 | QVQLVESGGGLVQAGGSLRLSCAASGFIFHRNAMGWYRQAPGKERELVAAITRSSTSTYYADSVKGRFTISRDNAKNTVYLQMNSLKPEDTAVYYCNARYPSADDWGQGTQVTVSS | high polyreactivity
34 | QVQLVESGGGLVQAGGSLRLSCAASGFIFHRYAMGWYRQAPGKERELVATITASGGSTYYADSVKGRFTISRDNAKNTVYLQMNSLKPEDTAVYYCAAGSFSRGRRTRQYNFDYWGQGTQVTVSS | high polyreactivity
35 | QVQLVESGGGLVQAGGSLRLSCAASGFIFIKYAMGWYRQAPGKERELLAASSFRGGRTYYADSVKGRFTISRDNAKNTVYLQMNSLNPEETAVYYCAAETRDYSEGYYWGQGTQVTVSS | high polyreactivity
36 | QVQLVESGGGLVQAGGSLRLSCAASGFIFIQNDMGWYRQAPGKEREFVASISKDGGRTYYADSVKGRFTISRDNAKNTVYLQMNSLKPEDTAVYYCNTYPRGNWGNFVEQDYDYWGQGTQVTVSS | low polyreactivity
37 | QVQLVESGGGLVQAGGSLRLSCAASGFIFISNAMGWSRQAPGKERELVARISDTDRTHYADSVKGRFTISRDNAKNTVYLQMNSLKPEDTAVYYCAAYDYNAIEYGYWGQGSQVTVSS | low polyreactivity
38 | QVQLVESGGGLVQAGGSLRLSCAASGFIFIYYAMGWYRQAPGKERELVAGITSGGSTNYADSVKGRFTISRDNAKNTVYLQMNSLKPEDTAVYYCAAGSSARWYPRYNYWGQGTQVTVSS | high polyreactivity
39 | QVQLVESGGGLVQAGGSLRLSCAASGFIFKFYAMGWYRQAHGKERELVAAISKSGGRTYYADSVKGRFTISRDNAKNTVYLQMNSLKPEDTAVYYCNAPSVGAAFDYWGQGTQVTVSS | high polyreactivity
40 | QVQLVESGGGLVQAGGSLRLSCAASGFIFKKYVMGWYRQAPGKERELVAGSSRSGGSTYYADSVKGRFTISRDNAKNTVYVQMNSLKPEDTAVYYCAAYIYQSPTRGGGYWGQGTQVSVSS | high polyreactivity
41 | QVQLVESGGGLVQAGGSLRLSCAASGFIFKPYAMGWYRQAPGKERELVAAITVNGGTTYYADSVKGRFTISRDNAKNTVYLQMNSLKPEDTAVYYCNRGRPGGPSWYHYDYWGQGTQGTVSS | high polyreactivity
42 | QVQLVESGGGLVQAGGSLRLSCAASGFIFKRYAMGWYRQAPGKERELVAAITSSGGRTYYADSVKGRFTISRDNAKNTVYLQMISLKPEDTAVYYCAKGWSTYYTKMNYWGQGTQVTVSS | low polyreactivity
43 | QVQLVESGGGLVQAGGSLRLSCAASGFIFKSYAMGWYRQAPGKERELVAAITRGDNTNYADSVKGRFTISRDNAKNTFYLQMNSLKPEDTAVYYCAADRYTVRMDYWGQGTQVTVSS | high polyreactivity
